Assay results published in patent US20240077502.
Residue numbers refer to the chain shown, from its start. In names and notes the source's numbering stands.

Assays:
[1] = target: T1, LPPAG substrate (flow cytometry panel)
T1 chain: LPPAG

Btn-LMVGG = target: T2, Btn-LMVGG
T2 chain: GLMVGGV

Abz-LPESGK(Dnp)-CONH2 = target: T3, Abz-LPESGK(Dnp)-CONH2
T3 chain: LPESGK

Abz-LMVGGK(Dnp)-CONH2 = target: T4, Abz-LMVGGK(Dnp)-CONH2
T4 chain: LMVGGK

[2] = target: T5, endogenous fetuin A in human plasma, P02765
T5 chain: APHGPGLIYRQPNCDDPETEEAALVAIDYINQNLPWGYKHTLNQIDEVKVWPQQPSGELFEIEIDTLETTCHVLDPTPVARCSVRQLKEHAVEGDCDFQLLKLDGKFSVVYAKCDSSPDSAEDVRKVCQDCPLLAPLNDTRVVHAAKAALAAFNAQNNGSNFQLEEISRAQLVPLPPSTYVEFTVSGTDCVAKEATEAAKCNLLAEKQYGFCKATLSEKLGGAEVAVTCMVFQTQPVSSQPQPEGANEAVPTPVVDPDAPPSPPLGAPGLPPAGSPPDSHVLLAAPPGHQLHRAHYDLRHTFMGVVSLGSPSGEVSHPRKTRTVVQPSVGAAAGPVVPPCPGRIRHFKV

[3] = target: T6, LPESG substrate (flow cytometry panel)
T6 chain: LPESG

purified fetuin A = target: T7, purified fetuin A
T7 sequence (P02765 19-300, species assumed, looked up): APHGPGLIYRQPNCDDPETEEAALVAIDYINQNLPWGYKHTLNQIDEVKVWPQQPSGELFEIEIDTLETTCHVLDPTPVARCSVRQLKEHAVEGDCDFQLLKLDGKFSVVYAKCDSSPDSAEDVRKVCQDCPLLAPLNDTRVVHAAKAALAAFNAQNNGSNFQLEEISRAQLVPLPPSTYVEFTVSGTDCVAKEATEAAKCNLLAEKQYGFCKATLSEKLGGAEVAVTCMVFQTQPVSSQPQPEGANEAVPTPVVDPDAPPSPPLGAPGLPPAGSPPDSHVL
T7 sequence (P02765 341-367, species assumed, looked up): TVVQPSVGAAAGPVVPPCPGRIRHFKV

Chain of Aβ40, P05067 (P05067 whole entry, looked up): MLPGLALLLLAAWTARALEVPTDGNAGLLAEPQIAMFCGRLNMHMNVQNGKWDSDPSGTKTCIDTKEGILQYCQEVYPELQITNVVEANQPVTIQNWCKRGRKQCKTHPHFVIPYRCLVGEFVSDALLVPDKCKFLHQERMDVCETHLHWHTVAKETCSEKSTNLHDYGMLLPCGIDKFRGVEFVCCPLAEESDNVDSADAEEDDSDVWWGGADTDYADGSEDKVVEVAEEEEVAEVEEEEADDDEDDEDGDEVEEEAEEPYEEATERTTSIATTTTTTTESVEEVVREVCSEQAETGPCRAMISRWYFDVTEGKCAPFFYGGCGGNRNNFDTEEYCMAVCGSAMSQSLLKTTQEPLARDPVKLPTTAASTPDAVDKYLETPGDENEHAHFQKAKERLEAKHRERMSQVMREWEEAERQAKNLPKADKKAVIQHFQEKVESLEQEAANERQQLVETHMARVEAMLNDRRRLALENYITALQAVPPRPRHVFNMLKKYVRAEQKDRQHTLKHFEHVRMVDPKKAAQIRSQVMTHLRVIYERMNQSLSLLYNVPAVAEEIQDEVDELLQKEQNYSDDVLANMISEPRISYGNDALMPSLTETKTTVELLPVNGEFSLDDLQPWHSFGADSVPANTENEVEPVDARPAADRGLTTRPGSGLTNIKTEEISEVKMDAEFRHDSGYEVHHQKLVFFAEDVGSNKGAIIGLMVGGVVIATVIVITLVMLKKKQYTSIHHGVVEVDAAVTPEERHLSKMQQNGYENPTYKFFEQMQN
Chain of Aβ42, P05067 (P05067 whole entry, looked up): as above
Chain of AβM1-42, P05067 (P05067 whole entry, looked up, tested part not stated): as the sequence (P05067 whole entry, looked up) above
Chain of AβM1-40, P05067 (P05067 whole entry, looked up, tested part not stated): as the sequence (P05067 whole entry, looked up) above
Chain of Aβ43, P05067 (P05067 whole entry, looked up): as above

B1: SrtAβ (protein)
chain: MKKWTNRLMTIAGVVLILVAAYLFAKPHIDNYLHDKDKDEKIEQYDKNVKEQASKDKKQQAKPQIPKDKSKVAGYLEIPDADIKEPVYPGPATREQLDRGVCFVDEDESLDDQNISIIGHTALLRPHYQFTNLRAAKLDSIVYFTVGNETRRYKITSICNVRPTAVEVLDEHEGKDRQLTLATCDDYNYETGVWESSKIFVATEVR
fold change of activity against 4S.6 (flow cytometry, yeast display) [1]: 11-fold reduced activity on LPPAG | change in substrate preference against 4S.6 (flow cytometry) (Btn-LMVGG): 1,470-fold change in preference to favor LMVGG [SEQ ID NO: 3] over LPESG [SEQ ID NO: 4] | fold change of activity against 4S.6 (flow cytometry, yeast display) (Btn-LMVGG): 28-fold increased activity on LMVGG | substrate preference, LMVGG over LPESG (flow cytometry) (Btn-LMVGG): 30-fold preference for LMVGG [SEQ ID NO: 3] over LPESG [SEQ ID NO: 4] | modification by the sortase (Aβ43, P05067): SrtAβ has been shown to modify Aβ40, Aβ42, and Aβ43 | conversion to transpeptidation product with 200 µM GGGRR (HPLC) (Aβ42, P05067): as opposed to 50% when reacted with 200 µM GGGRR | conversion to transpeptidation product with 1 mM GGGRR (HPLC) (Aβ42, P05067): 64% of the Aβ42 was converted to the expected product when reacted with 1 mM GGGRR | modification by the sortase (Aβ42, P05067): SrtAβ has been shown to modify Aβ40, Aβ42, and Aβ43 | biotinylated product formed in human plasma (streptavidin capture ELISA) (Aβ40, P05067): 1.5 µM SrtAβ generating 2.3 µM of biotinylated product from 5 µM Aβ40 in two hours | lowest Aβ40 concentration at which labeling was observed in human plasma (m266 capture ELISA) (Aβ40, P05067): labeling of Aβ40 spiked into human plasma at concentrations as low as 5 nM was observed | modification by the sortase (Aβ40, P05067): SrtAβ has been shown to modify Aβ40, Aβ42, and Aβ43 | yield of transpeptidation products with glycine nucleophiles (HPLC) (Aβ40, P05067): the expected transpeptidation products were observed in yields of 80-88% | kinetic parameters (HPLC assay) (Abz-LPESGK(Dnp)-CONH2): SrtAβ activity on LPESG [SEQ ID NO: 4] was too low to establish accurate kinetic parameters | KM (Abz-LMVGGK(Dnp)-CONH2): KM=128 µM (95% CI=87 to 198 µM) | kcat (Abz-LMVGGK(Dnp)-CONH2): kcat=0.018 s-1 (95% CI=0.015 to 0.023 s-1) | activity on fetuin A in human plasma (streptavidin pulldown, Coomassie) [2]: a sortase variant with greatly reduced activity on fetuin A relative to the starting sortase 4S.6 was generated | labeling with GGGK(Btn) in human plasma, Western blot [2]: 4S.6, but not SrtAβ, labels fetuin A | fold change of activity against 4S.6 (flow cytometry, yeast display) [3]: 53-fold reduced activity on LPESG | conversion to transpeptidation product with GGGK(Btn) (HPLC) (AβM1-40, P05067): 82% of the starting AβM1-40 was converted to the desired product | conversion to transpeptidation product with GGGRR (HPLC) (AβM1-42, P05067): 64% of the starting AβM1-42 was converted to the desired product

B2: SrtAβ reversion mutant R134G (protein)
chain: B1 chain with R134G
reduction of activity against SrtAβ (flow cytometry, yeast display) (Btn-LMVGG): 2 fold

B3: SrtAβ reversion mutant C159R (protein)
chain: B1 chain with C159R
reduction of activity against SrtAβ (flow cytometry, yeast display) (Btn-LMVGG): 2 fold

B4: SrtAβ reversion mutant R177K (protein)
chain: B1 chain with R177K
reduction of activity against SrtAβ (flow cytometry, yeast display) (Btn-LMVGG): 2 fold

B5: SrtAβ reversion mutant A182V (protein)
chain: B1 chain with A182V
reduction of activity against SrtAβ (flow cytometry, yeast display) (Btn-LMVGG): 2 fold

B6: minimal mutant (4S.6 with S118I, G134R, R159C, K177R, V182A, and R197S mutations) (protein)
chain: QAKPQIPKDKSKVAGYIEIPDADIKEPVYPGPATREQLDRGVSFVEENESLDDQNISIIGHTAIDRPNYQFTNLRAAKKGSMVYFKVGNETRKYKMTSICNVKPTAVEVLDEQKGKDRQLTLATCDDYNVETGVWETSKIFVATEVK
fold change of activity against 4S.6 (flow cytometry) (Btn-LMVGG): 4-fold improvement in LMVGG [SEQ ID NO: 3] activity relative to 4S.6 | fold change of activity against SrtAβ (flow cytometry) (Btn-LMVGG): 23-fold lower activity than SrtAβ

B7: SrtA 8.5-H3 (protein)
chain: MKKWTNRLMTIAGVVLILVAAYLFAKPHIDNYLHDKDKDEKIEQYDKNVKEQASKDKKQQARPQIPKDKSKVAGYIEIPDADIKEPVYPGPATREQLDRGVSFVEEDESLDDQNISIIGHTALLRPNYQFTNLRAAKIGSMVYFKVGNETRKYKMTSIRNVKPTAVEVLDEQEGKDRQLTLATCDDYNIETGVWESSKIFVATEVK
labeling with GGGK(Btn), Western blot (purified fetuin A): Labeled fetuin A is detected by Western blot | KM (Abz-LMVGGK(Dnp)-CONH2): KM=52 µM (95% CI=29 to 103 µM) | kcat (Abz-LMVGGK(Dnp)-CONH2): kcat=0.012 s-1 (95% CI=0.009 to 0.017 s-1) | percent of substrate converted to product (HPLC assay for SrtA activity) (Abz-LMVGGK(Dnp)-CONH2): converting 10% of M substrate to product in two hours | labeling with GGGK(Btn) in human plasma, Western blot [2]: Western blot of overnight reaction of SrtA 8.5-H3 (50 µM) and GGGK[SEQ ID NO: 6](Btn) (1 mM) in human plasma shows labeling of endogenous fetuin A

B8: sortase 4S.6 (protein)
chain: B6 chain with I59S, R75G, C100R, R118K, A123V, S138R
KM (Abz-LPESGK(Dnp)-CONH2): KM=610 µM (95% CI=90 to 5550 µM) | kcat (Abz-LPESGK(Dnp)-CONH2): kcat=0.36 s-1 (95% CI=0.22 to 0.96 s-1) | kinetic parameters (Abz-LMVGGK(Dnp)-CONH2): 4S.6 activity on LMVGG [SEQ ID NO: 3] was not detectable | labeling with GGGK(Btn) in human plasma, Western blot [2]: 4S.6, but not SrtAβ, labels fetuin A | substrate preference, LPESG over LMVGG (flow cytometry) [3]: 49-fold preference for LPESG [SEQ ID NO: 4] over LMVGG [SEQ ID NO: 3]

B9: round 7 consensus sequence (R7) reversion mutant Y94R (protein)
chain: B6 chain with I64L, D65L, K79I, C100R, K114E, R118K, V130F, T137S
fold change of activity against the round 7 consensus sequence (flow cytometry, 100-1000 nM Btn-LMVGG) (Btn-LMVGG): Reversion mutant Y94R showed a 2.3-fold improvement on average across substrate concentrations compared to the round 7 consensus sequence

B10: round 7 consensus sequence (R7) reversion mutant L123I (protein)
chain: B6 chain with R35Y, D65L, K79I, C100R, K114E, R118K, V130F, T137S
fold change of activity against the round 7 consensus sequence (flow cytometry, 100-1000 nM Btn-LMVGG) (Btn-LMVGG): L123I (1.5-fold)

B11: round 7 consensus sequence (R7) reversion mutant L124D (protein)
chain: B6 chain with R35Y, I64L, K79I, C100R, K114E, R118K, V130F, T137S
fold change of activity against the round 7 consensus sequence (flow cytometry, 100-1000 nM Btn-LMVGG) (Btn-LMVGG): L124D (1.1-fold)
